Here are results for one molecule from PMC10873366.

Experiment [1] concerns the target Sox2 N-terminal domain and DBD (N-DBD). Kind of experiment: NMR; residue Ser 290. Conditions: domain or fragment; Limits are not printed. They are inferred from the C-IDR label position 120, the +9/-9 charge count, and 180 observable HSQC peaks (198 residues minus 17 Pro and the N-terminal residue). The NMR sample was 15N-labelled or unlabelled. The His6-SUMO tag was removed. The smFRET version carries dyes at 120 and 265. Limits are not printed. They are inferred from 109 expected HSQC peaks (119 residues m); modification not given.

For experiment [2] the target is unchanged. Description: NMR; residue Ala 287. Conditions: domain or fragment; Limits are not printed. They are inferred from the C-IDR label position 120, the +9/-9 charge count, and 180 observable HSQC peaks (198 residues minus 17 Pro and the N-terminal residue). The NMR sample was 15N-labelled or unlabelled. The His6-SUMO tag was removed. The smFRET version carries dyes at 120 and 265. Limits are not printed. They are inferred from 109 expected HSQC peaks (119 residues m); modification not given.

Sox2 N-terminal domain and DBD (N-DBD), sequence (chain, as listed by the source): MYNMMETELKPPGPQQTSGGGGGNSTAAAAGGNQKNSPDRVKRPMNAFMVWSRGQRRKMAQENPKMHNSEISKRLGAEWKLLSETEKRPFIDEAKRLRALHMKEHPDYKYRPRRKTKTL

B1: Sox2 C-terminal intrinsically disordered region (C-IDR) (protein)
chain: MKKDKYTLPGGLLAPGGNSMASGVGVGAGLGAGVNQRMDSYAHMNGWSNGSYSMMQDQLGYPQHPGLNAHGAAQMQPMHRYDVSALQYNSMTSSQTYMNGSPTYSMSYSQQGTPGMALGSMGSVVKSEASSSPPVVTSSSHSRAPCQAGDLRDMISMYLPGAEVPEPAAPSRLHMSQHYQSGPVPGTAINGTLPLSHM
Turning to B1, the Kd (as a rule, the concentration at which binding is half-saturated) in experiment [1] came out at 74 µM; in experiment [2] it was 93 µM.
